Source: the RNAGym collection of RNA variant scans (doi:10.1073/pnas.2313332121)

B1: TPR t1 (parent)
chain: GACCAAUCUGCCCUCAGAGCUCGAGAACAUCUUCGGAUGCAGAGGAGGCAGGCUUCGGUGGCGCGAUAGCGCCAACGUCCUCAACCUCCAAUGCAUCCCACCACAUGAUGAUGCCUGAAGAGCCUUGGUUUUUUG

Variants of: B1
Test: polymerase ribozyme fitness, log enrichment relative to wild type (log ratio); higher = more active; in vitro selection for triplet polymerase activity
How it was run: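 Mutant libraries of both subunits of a heterodimeric triplet polymerase ribozyme were PCR-built, transcribed, and selected once in triplicate, with frozen incubation at −7 °C and capture of gel-excised extended constructs on streptavidin beads before RT-PCR. Illumina sequencing of input and output libraries was filtered to genotypes with ≥10 input reads and ≥1 read per output. Fitness is the logarithm of genotype enrichment over wild-type enrichment, using inverse-variance-weighted replicate averages. The logarithm is base 2.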

Variant	polymerase ribozyme fitness (log ratio)
C4A A29G U30C A74C A121U	-3.71
C3U C56U G77C	-1.42
C3U G69C U87G C124A	0.486
C4A C8A U9C C82U C114U	-2.35
C3U U9A A37U G113A	-0.314
C4A C56U	-0.847
C4A C56G	-1.83
C4A C56A	-2.53
C3U G63C G110A	-2.26
C4A A18C A43U C72A	-3.77
C4A C12A C70U C86G G120U G128C	-2.75
C3U C56U	-0.891
C3U G17A	-3.24
C3U G17U	-3.11
C3U G60A U92A	-3.06
C4A C13U C124A	0.115
C3U G39U G61A G93C C101A	-3.7
C3U G44A	-1.11
C3U G44U	-1.62
C3U U55G	-0.611
C3U G48U	-0.574
C3U G48A	-1.92
C3U G35U C70A C99A C115A	-4.32
C4A C56A G69U A90C	-2.84

Variant	polymerase ribozyme fitness (log ratio)
C3U G113A	-1.68
C3U C56G C79A C124G	-0.114
C3U G45A G61U A100U C124U	0.286
C3U C94G C114A U125A	-4.28
C3U C104A	-2.21
C3U C104U	-0.0507
C3U U92A	-2.91
C3U G17U C72U	-2.73
C3U G36C G58C U112G	-0.836
C4A C49G A83G C88A C102U G120C	-5.38
C3U U54C G61A A90C	-0.844
C4A A18C G42U C86G C114G	-3.47
C4A A18G G71U C89A A100C G113A C124U	-4.08
C3U C72U C76U C85U U116G C124U U129C	-6.12
C3U C73U U87C C88U A111G C123A	-3.08
C4A A50G C70U A84C C115A	-2.59
C3U G45C G61A	0.0995
C4A C12G G117A G128C	-1.61
C4A C73U	-1.49
C3U U7G C20U U21G G71U G110U C124G	-5.25
C3U G52A	-0.0464
C4A A119C G120A G127U	-0.47
C3U G57C C62U C97U A108G C123U C124G	-1.18
C3U C53U G117U A118G	-0.935

Variant	polymerase ribozyme fitness (log ratio)
C4A C11G C13A C53U G69C U81G G110A	-6.32
C3U C82A	-0.533
C4A C8A G36A C72G C99G C104A C124U	-6.92
C3U G93U	-1.95
C3U G93A C102U	-2.82
C4A C13U A24C C40G A111G	-5.59
C4A A6C A46C C49A C72G A84C A119U C123A U126G	-2.77
C3U U112A G120U U125G	-2.25
C3U G10A	0.634
C3U C49U	-1.18
C3U C49G	-1.16
C4A A6C C53A C82A G117C	-7.24
C4A A5U C15G C88U G120C	-4.83
C3U C70U U78G U87A	-1.1
C3U U109G G110A	-4.81
C4A C72U G110A U129G	-5.59
C4A C40U C62A U112A	-2.53
C3U G42U	-1.55
C4A C40U C53U G57U A83C G113U	-5.8
C4A C8U	-0.352
C3U C53U G57C U59A C88G	-2.35
C3U C124A	1.2
C3U C124G	2.17
C3U U7G A29G C101U U106C	-4.76

Variant	polymerase ribozyme fitness (log ratio)
C4A C11G A16G G36C C56U G113U	-2.81
C3U G39U U81C A111C	-2.34
C3U C86U C101G	-1.68
C3U G47U C53G U96G C104U A118G C124U	-1.09
C3U G60A	-0.489
C3U G60C	-0.334
C4A C72G	-1.81
C4A C8G G36U G45U U78A C114U	-5.41
C3U G23A	-5.54
C4A A90U	-2.78
C3U G57U G69A	-3.04
C3U G117A U126A	-5.16
C3U C70U G113C	-3.44
C3U G42U C56G	-2.49
C3U G39A C40U G60C C94A	-2.98
C3U C123U	0.881
C3U U14A A111U G120U	-5.57
C3U U9C C88G U116C	-0.482
C4A A5G A111C	-0.259
C3U G63A C76U G110A C124U	-5.42
C3U C70U	-0.813
C3U C70G	-2.84
C4A A37U G93A	-2.66
C3U G45A G71A C79U	-1.81

Variant	polymerase ribozyme fitness (log ratio)
C3U C85U	-1.43
C3U G48A G60C G113A	-1.14
C3U U78C	0.0101
C3U U130C	0.391
C3U U7A A37C G71C	-0.976
C3U U9A G69C C82A	-1.37
C3U G44C A46U G110A	-2.98
C4A A16C C72A C101A C124U U130A	-4.51
C3U G107A C124G G128A U133G	-4.53
C3U C53U	-1.24
C3U G44U C82A	-1.68
C4A C72A G113A	-3.57
C3U U59G G113A	-1.89
C3U C101A G117U G135U	-4.63
C4A C72A C114U C124A	-2.33
C3U G42C A91C	-2.67
C3U G69U A121G U125A	2.91
C4A C8G A18C G23C U112G U116A	-5.14
C3U C86U C104A	-1.75
C3U C89U	-0.863
C3U C89A	-2.23
C3U G39A G69A A105C G120U G128C	-6.86
C4A A43G U130C	-2.6
C3U G45U	-1.13

Variant	polymerase ribozyme fitness (log ratio)
C3U U9G	0.724
C3U U54G A75G U92C	-2.3
C3U C79U C94U G110U	-1.77
C4A A24G	-4.5
C3U G58A C101G	-2.57
C3U G71U C101G	-3.08
C3U G58C	-0.467
C3U G58A	-0.199
C4A C20A	-4.2
C3U G44U G45U G63U C88A	-2.78
C3U C53A G71A U78A	-0.343
C3U G61U C80G	-5.52
C3U U30G C123A C124U	-5.14
C3U G48A C97A	-5.8
C3U G61A	-0.131
C3U G61C	-2.38
C3U G120U	-0.507
C3U C53U C73U C88U	-0.301
C3U G52A A121U	1.95
C3U C86G	-2.21
C4A C64U	-1.24
C3U C53G U112A	0.998
C3U C53G C89G	-1.41
C3U G69C	-1.44

Variant	polymerase ribozyme fitness (log ratio)
C3U G69U	0.198
C4A A74G	-1.14
C4A A74U	-1.77
C3U G47A C49G G69A	-4.22
C3U C62A C115A U125G	-1.86
C3U C85A G117A	-2.52
C3U U7G G42U	-1.73
C3U G17C C22A A29G G45A G69U C89U	-3.84
C3U U9A C123A	1.32
C4A C40U C114U	-4.58
C3U G48A C72U U129G	-4.31
C3U C102U C114G C124G	-4.14
C4A A84C C115U G135U	-3.92
C3U G17U G63U C73U	-4.23
C4A C12A C13A A18U G44A G51A U59A U87A G110C G120A U126G	-7.29
C4A A41G U106A	-1.87
C3U G39A G69U A105C G120U G128C	-3.77
C3U G52U G57U C82A G122A	-3.12
C3U G48U C49G C99U	-4.65
C4A A46U C56U C72G C123G	-4.32
C3U G44U C73G U125A	-2.29
C4A C56G A84G C89U C115A	-4.85
C4A A43G G47C C64U C86G U125G G127C	-2.57
